{"source": "patent CN114539423A", "about": "(dated 2022)", "binders": {"B1": {"name": "CD19scFv-CD80-CD3scFv三特异性融合蛋白 (other)", "chain": "HHHHHHLEDIVLTQSPKFMSTSVGDRVSVTCKASQNVGTNVAWYQQKPGQSPKPLIYSATYRNSGVPDRFTGSGSGTDFTLTITNVQSKDLADYFCQQYNRYPYTSGGGTKLEIKRGGGGSGGGGSGGGGSQVQLQQSGAELVRPGSSVKISCKASGYAFSSYWMNWVKQRPGQGLEWIGQIYPGDGDTNYNGKFKGQATLTADKSSSTAYMQLSGLTSEDSAVYFCARKTISSVVDFYFDYWGQGTTLTVSSEFGGGGSGGGGSGGGGSGGGGSVIHVTKEVKEVATLSCGHNVSVEELAQTRIYWQKEKKMVLTMMSGDMNIWPEYKNRTIFDITNNLSIVILALRPSDEGTYECVVLKYEKDAFKREHLAEVTLSVKADFPTPSISDFEIPTSNIRRIICSTSGGFPEPHLSWLENGEELNAINTTVSQDPETELYAVSSKLDFNMTTNHSFMCLIKYGHLRVNQTFNWNTTKQEHFPDNGGGGSGGGGSGGGGSGGGGSVDADIELTQSPAIMSASPGEKVTMTCSASSSVSYMNWYQQKSGTSPKRWIYDTSKLASGVPARFSGSGSGTSYSLTISGMEAEDAATYYCQQWSSNPFTFGSGTKLELKRGGGGSGGGGSGGGGSQVQLQQSGAELARPGASVKMSCKASGYTFTRYTMHWVKQRPGQGLEWIGYINPSRGYTNYNQKFKDKATLTTDKSSSTAYMELTRLTSEDSAVYYCARYYDDHYSLDYWGQGTTVTVSSWSHPQFEK", "notes": "Expressed in ExpiCHO-S cells; also called 19TriTE; CD19scFv-CD80-CD3scFv重组融合蛋白"}}, "key": {"[1]": {"target": "T1, CD19 (on Nalm6 leukemia cells) (human, UniProt P15391 20-556)", "T1 construct": "whole, on cells; also called CD19抗原; Nalm6上的CD19抗原", "T1 sequence (looked up)": "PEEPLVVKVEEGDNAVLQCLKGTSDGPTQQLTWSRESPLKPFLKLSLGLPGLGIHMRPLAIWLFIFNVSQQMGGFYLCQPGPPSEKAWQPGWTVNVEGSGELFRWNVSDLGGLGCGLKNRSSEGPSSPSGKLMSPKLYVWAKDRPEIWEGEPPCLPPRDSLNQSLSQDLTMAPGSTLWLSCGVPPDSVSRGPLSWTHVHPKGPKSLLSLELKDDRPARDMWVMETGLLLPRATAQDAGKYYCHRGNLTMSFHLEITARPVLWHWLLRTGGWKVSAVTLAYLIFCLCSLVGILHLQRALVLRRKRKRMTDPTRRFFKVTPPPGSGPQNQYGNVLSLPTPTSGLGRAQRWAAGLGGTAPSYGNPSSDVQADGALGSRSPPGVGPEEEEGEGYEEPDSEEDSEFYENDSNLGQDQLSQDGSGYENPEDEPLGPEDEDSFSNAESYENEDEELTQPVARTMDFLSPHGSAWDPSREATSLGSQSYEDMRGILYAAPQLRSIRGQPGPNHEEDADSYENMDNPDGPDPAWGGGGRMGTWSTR", "test": "flow cytometry titration (0.05-100 nM) on Nalm6 cells, anti-His then APC anti-mouse IgG detection, fitted in GraphPad Prism8"}, "[2]": {"target": "CD3 (on human T cells) (human)", "sequence (P07766 23-207, chain 1 of 4)": "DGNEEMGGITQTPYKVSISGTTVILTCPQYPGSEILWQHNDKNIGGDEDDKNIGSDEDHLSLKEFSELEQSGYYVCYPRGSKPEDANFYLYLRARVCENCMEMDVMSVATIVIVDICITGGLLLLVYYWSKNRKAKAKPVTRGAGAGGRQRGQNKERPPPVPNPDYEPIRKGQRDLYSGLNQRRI", "sequence (P09693 23-182, chain 2 of 4, further chain)": "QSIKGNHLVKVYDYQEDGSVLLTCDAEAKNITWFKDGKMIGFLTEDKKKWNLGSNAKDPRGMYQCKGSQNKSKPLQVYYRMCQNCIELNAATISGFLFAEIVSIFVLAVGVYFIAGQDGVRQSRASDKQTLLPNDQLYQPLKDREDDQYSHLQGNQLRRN", "sequence (P04234 22-171, chain 3 of 4, further chain)": "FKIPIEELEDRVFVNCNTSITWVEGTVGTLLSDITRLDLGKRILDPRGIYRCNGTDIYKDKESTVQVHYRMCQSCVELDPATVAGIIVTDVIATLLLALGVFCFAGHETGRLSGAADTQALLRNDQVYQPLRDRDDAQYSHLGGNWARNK", "sequence (P20963 22-164, chain 4 of 4, further chain)": "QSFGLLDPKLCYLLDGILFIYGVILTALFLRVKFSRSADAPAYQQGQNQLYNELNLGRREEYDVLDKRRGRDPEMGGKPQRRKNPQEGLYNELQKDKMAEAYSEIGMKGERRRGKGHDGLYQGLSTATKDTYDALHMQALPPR", "test": "flow cytometry titration on human T cells, same method as for Nalm6, fitted in GraphPad Prism8"}}, "data": [{"binder": "B1", "values": [{"measurement": "Kd", "setting": "[1]", "value": 11.7, "unit": "nM"}, {"measurement": "Kd", "setting": "[2]", "value": 19.2, "unit": "nM"}]}]}
